Reference: US20180155451A1 (published 2018)

Biological target: T1, FcγRIa extracellular domain with C-terminal His tag (human, UniProt P12314 16-292)
T1 construct: extracellular domain; soluble analyte in Biacore; also called FcgRI; CD64
Test: SPR (Biacore), relative FcγRIa binding, GpH7-A5/GpH7-B3/GpL16-k0 (HeCon Ab) = 100

T1 sequence (P12314 16-292): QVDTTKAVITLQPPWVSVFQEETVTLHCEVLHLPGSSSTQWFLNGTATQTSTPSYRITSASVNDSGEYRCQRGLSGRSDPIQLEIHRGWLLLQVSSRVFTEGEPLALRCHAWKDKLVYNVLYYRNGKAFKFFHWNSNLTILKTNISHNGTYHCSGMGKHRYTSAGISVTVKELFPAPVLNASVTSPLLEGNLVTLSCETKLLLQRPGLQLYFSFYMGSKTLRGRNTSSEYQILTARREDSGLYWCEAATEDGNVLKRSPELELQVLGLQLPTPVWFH

Binder | He/Con_1a
GpH7-A5/GpH7-B3 variant T335_01G/GpL16-k0 (antibody, human IgG1, kappa, heterodimerized antibody, mutation in one H chain only; also called T335_01G He Ab) heavy 1: not shown heavy 2: not shown light: DIVMTQSPLSLPVTPGEPASISCQASESLVHSNRNTYLHWYLQKPGQSPQLLIYKVSNRFSGVPDRFSGSGSGTDFTLKISRVEAEDVGVYYCSQNTHVPPTFGQGTKVEIERTVAAPSVFIFPPSDEQLKSGTASVVCLLNNFYPREAKVQWKVDNALQSGNSQESVTEQDSKDSTYSLSSTLTLSKADYEKHKVYACEVTHQGLSSPVTKSFNRGEC | 104 % of control
GpH7-A5/GpH7-B3 variant P271_10E/GpL16-k0 (antibody, human IgG1, kappa, heterodimerized antibody, mutation in one H chain only; also called P271_10E He Ab) heavy 1: not shown heavy 2: not shown light: DIVMTQSPLSLPVTPGEPASISCQASESLVHSNRNTYLHWYLQKPGQSPQLLIYKVSNRFSGVPDRFSGSGSGTDFTLKISRVEAEDVGVYYCSQNTHVPPTFGQGTKVEIERTVAAPSVFIFPPSDEQLKSGTASVVCLLNNFYPREAKVQWKVDNALQSGNSQESVTEQDSKDSTYSLSSTLTLSKADYEKHKVYACEVTHQGLSSPVTKSFNRGEC | 103 % of control
GpH7-A5/GpH7-B3 variant S298_09D/GpL16-k0 (antibody, human IgG1, kappa, heterodimerized antibody, mutation in one H chain only; also called S298_09D He Ab) heavy 1: not shown heavy 2: not shown light: DIVMTQSPLSLPVTPGEPASISCQASESLVHSNRNTYLHWYLQKPGQSPQLLIYKVSNRFSGVPDRFSGSGSGTDFTLKISRVEAEDVGVYYCSQNTHVPPTFGQGTKVEIERTVAAPSVFIFPPSDEQLKSGTASVVCLLNNFYPREAKVQWKVDNALQSGNSQESVTEQDSKDSTYSLSSTLTLSKADYEKHKVYACEVTHQGLSSPVTKSFNRGEC | 106 % of control
GpH7-A5/GpH7-B3 variant Q295_10E/GpL16-k0 (antibody, human IgG1, kappa, heterodimerized antibody, mutation in one H chain only; also called Q295_10E He Ab) heavy 1: not shown heavy 2: not shown light: DIVMTQSPLSLPVTPGEPASISCQASESLVHSNRNTYLHWYLQKPGQSPQLLIYKVSNRFSGVPDRFSGSGSGTDFTLKISRVEAEDVGVYYCSQNTHVPPTFGQGTKVEIERTVAAPSVFIFPPSDEQLKSGTASVVCLLNNFYPREAKVQWKVDNALQSGNSQESVTEQDSKDSTYSLSSTLTLSKADYEKHKVYACEVTHQGLSSPVTKSFNRGEC | 103 % of control
GpH7-A5/GpH7-B3 variant S337_14T/GpL16-k0 (antibody, human IgG1, kappa, heterodimerized antibody, mutation in one H chain only; also called S337_14T He Ab) heavy 1: not shown heavy 2: not shown light: DIVMTQSPLSLPVTPGEPASISCQASESLVHSNRNTYLHWYLQKPGQSPQLLIYKVSNRFSGVPDRFSGSGSGTDFTLKISRVEAEDVGVYYCSQNTHVPPTFGQGTKVEIERTVAAPSVFIFPPSDEQLKSGTASVVCLLNNFYPREAKVQWKVDNALQSGNSQESVTEQDSKDSTYSLSSTLTLSKADYEKHKVYACEVTHQGLSSPVTKSFNRGEC | 105 % of control
GpH7-A5/GpH7-B3 variant S324_09D/GpL16-k0 (antibody, human IgG1, kappa, heterodimerized antibody, mutation in one H chain only; also called S324_09D He Ab) heavy 1: not shown heavy 2: not shown light: DIVMTQSPLSLPVTPGEPASISCQASESLVHSNRNTYLHWYLQKPGQSPQLLIYKVSNRFSGVPDRFSGSGSGTDFTLKISRVEAEDVGVYYCSQNTHVPPTFGQGTKVEIERTVAAPSVFIFPPSDEQLKSGTASVVCLLNNFYPREAKVQWKVDNALQSGNSQESVTEQDSKDSTYSLSSTLTLSKADYEKHKVYACEVTHQGLSSPVTKSFNRGEC | 104 % of control
GpH7-A5/GpH7-B3 variant S267_19Q/GpL16-k0 (antibody, human IgG1, kappa, heterodimerized antibody, mutation in one H chain only; also called S267_19Q He Ab) heavy 1: not shown heavy 2: not shown light: DIVMTQSPLSLPVTPGEPASISCQASESLVHSNRNTYLHWYLQKPGQSPQLLIYKVSNRFSGVPDRFSGSGSGTDFTLKISRVEAEDVGVYYCSQNTHVPPTFGQGTKVEIERTVAAPSVFIFPPSDEQLKSGTASVVCLLNNFYPREAKVQWKVDNALQSGNSQESVTEQDSKDSTYSLSSTLTLSKADYEKHKVYACEVTHQGLSSPVTKSFNRGEC | 102 % of control
GpH7-A5/GpH7-B3 variant P271_19Q/GpL16-k0 (antibody, human IgG1, kappa, heterodimerized antibody, mutation in one H chain only; also called P271_19Q He Ab) heavy 1: not shown heavy 2: not shown light: DIVMTQSPLSLPVTPGEPASISCQASESLVHSNRNTYLHWYLQKPGQSPQLLIYKVSNRFSGVPDRFSGSGSGTDFTLKISRVEAEDVGVYYCSQNTHVPPTFGQGTKVEIERTVAAPSVFIFPPSDEQLKSGTASVVCLLNNFYPREAKVQWKVDNALQSGNSQESVTEQDSKDSTYSLSSTLTLSKADYEKHKVYACEVTHQGLSSPVTKSFNRGEC | 103 % of control
GpH7-A5/GpH7-B3 variant S337_11K/GpL16-k0 (antibody, human IgG1, kappa, heterodimerized antibody, mutation in one H chain only; also called S337_11K He Ab) heavy 1: not shown heavy 2: not shown light: DIVMTQSPLSLPVTPGEPASISCQASESLVHSNRNTYLHWYLQKPGQSPQLLIYKVSNRFSGVPDRFSGSGSGTDFTLKISRVEAEDVGVYYCSQNTHVPPTFGQGTKVEIERTVAAPSVFIFPPSDEQLKSGTASVVCLLNNFYPREAKVQWKVDNALQSGNSQESVTEQDSKDSTYSLSSTLTLSKADYEKHKVYACEVTHQGLSSPVTKSFNRGEC | 104 % of control
GpH7-A5/GpH7-B3 variant S267_10E/GpL16-k0 (antibody, human IgG1, kappa, heterodimerized antibody, mutation in one H chain only; also called S267_10E He Ab) heavy 1: not shown heavy 2: not shown light: DIVMTQSPLSLPVTPGEPASISCQASESLVHSNRNTYLHWYLQKPGQSPQLLIYKVSNRFSGVPDRFSGSGSGTDFTLKISRVEAEDVGVYYCSQNTHVPPTFGQGTKVEIERTVAAPSVFIFPPSDEQLKSGTASVVCLLNNFYPREAKVQWKVDNALQSGNSQESVTEQDSKDSTYSLSSTLTLSKADYEKHKVYACEVTHQGLSSPVTKSFNRGEC | 106 % of control
GpH7-A5/GpH7-B3 variant S337_16H/GpL16-k0 (antibody, human IgG1, kappa, heterodimerized antibody, mutation in one H chain only; also called S337_16H He Ab) heavy 1: not shown heavy 2: not shown light: DIVMTQSPLSLPVTPGEPASISCQASESLVHSNRNTYLHWYLQKPGQSPQLLIYKVSNRFSGVPDRFSGSGSGTDFTLKISRVEAEDVGVYYCSQNTHVPPTFGQGTKVEIERTVAAPSVFIFPPSDEQLKSGTASVVCLLNNFYPREAKVQWKVDNALQSGNSQESVTEQDSKDSTYSLSSTLTLSKADYEKHKVYACEVTHQGLSSPVTKSFNRGEC | 105 % of control
